Source: article PMC11189301, “Structure of the human outer kinetochore KMN network complex” (Nature Structural & Molecular Biology, 2024)

Assays:
Assay in all cases: cryo-EM structure; NDC80C, MIS12C and KNL1C mixed 1:1:1 and run on Superose 6 in 20 mM HEPES pH 8.0, 80 mM NaCl, 1 mM MgCl2, 1 mM TCEP; about 1 mg/ml on UltrAuFoil grids; 3.0 Å (MIS12C heads 3.8 Å)
Conditions in all cases: both partners purified
Nsl1 = molecular target: T1, Nsl1 (Homo sapiens, UniProt Q96IY1 1-281)
T1 construct: Nsl1, subunit of human MIS12C; Subunit within the KMN network cryo-EM sample; source: High-5 insect cells, expressed and purified as part of MIS12C
T1 sequence (looked up): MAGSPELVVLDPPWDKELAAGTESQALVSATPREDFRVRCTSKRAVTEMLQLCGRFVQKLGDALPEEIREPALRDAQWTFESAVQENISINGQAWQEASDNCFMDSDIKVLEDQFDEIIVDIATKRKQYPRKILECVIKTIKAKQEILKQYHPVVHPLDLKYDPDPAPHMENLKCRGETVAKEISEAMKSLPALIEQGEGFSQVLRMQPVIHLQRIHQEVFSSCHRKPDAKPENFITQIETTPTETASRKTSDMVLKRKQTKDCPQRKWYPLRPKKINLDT

Spc25 = molecular target: T2, Spc25 (Homo sapiens, UniProt Q9HBM1 1-224)
T2 construct: Spc25, subunit of human NDC80C; coordinates traced D80–N224; Subunit within the KMN network cryo-EM sample; source: High-5 insect cells, expressed and purified as part of NDC80C
T2 sequence (looked up): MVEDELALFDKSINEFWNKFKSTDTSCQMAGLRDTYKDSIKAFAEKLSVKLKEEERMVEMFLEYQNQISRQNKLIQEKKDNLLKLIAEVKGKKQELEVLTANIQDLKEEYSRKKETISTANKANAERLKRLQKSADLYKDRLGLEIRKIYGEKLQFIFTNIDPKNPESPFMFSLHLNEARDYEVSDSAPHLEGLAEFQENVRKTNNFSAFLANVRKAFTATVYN

Dsn1 = molecular target: T3, Dsn1 (Homo sapiens, UniProt Q9H410 1-356)
T3 construct: Dsn1, subunit of human MIS12C; Subunit within the KMN network cryo-EM sample; residues N-terminal to Arg92 are disordered; source: High-5 insect cells, expressed and purified as part of MIS12C
T3 sequence (looked up): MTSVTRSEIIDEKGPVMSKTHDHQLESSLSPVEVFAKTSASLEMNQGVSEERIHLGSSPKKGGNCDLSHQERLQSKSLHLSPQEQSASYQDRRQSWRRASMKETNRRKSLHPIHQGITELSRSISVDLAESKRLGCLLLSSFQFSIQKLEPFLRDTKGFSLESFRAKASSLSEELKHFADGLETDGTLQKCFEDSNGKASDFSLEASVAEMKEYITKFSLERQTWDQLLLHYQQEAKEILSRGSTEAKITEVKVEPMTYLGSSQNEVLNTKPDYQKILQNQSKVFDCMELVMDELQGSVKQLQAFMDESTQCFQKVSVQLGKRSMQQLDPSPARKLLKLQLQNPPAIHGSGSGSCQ

binding result (Nsl1): binds | binding result (Spc25): binds | binding result (Dsn1): binds
B1: Spc24 (natural protein, Homo sapiens, UniProt Q8NBT2 1-197, looked up)
chain: MAAFRDIEEVSQGLLSLLGANRAEAQQRRLLGRHEQVVERLLETQDGAEKQLREILTMEKEVAQSLLNAKEQVHQGGVELQQLEAGLQEAGEEDTRLKASLLQLTRELEELKEIEADLERQEKEVDEDTTVTIPSAVYVAQLYHQVSKIEWDYECEPGMVKGIHHGPSVAQPIHLDSTQLSRKFISDYLWSLVDTEW
notes: Spc24, subunit of human NDC80C; coordinates traced G86–W197; Subunit within the KMN network cryo-EM sample; source: High-5 insect cells, expressed and purified as part of NDC80C
